From patent US5719021A, “Protein activation” (University of Medicine and Dentistry of New Jersey, dated 1998)
Read-outs that look alike come from different tables or passages of the source.

What was measured:
subtilisin E = biological target: T1, subtilisin E (Bacillus subtilis, UniProt P04189); test: Competitive inhibition of subtilisin E by synthetic pro-peptides; type: biochemical; conditions: competitive inhibitor
T1 construct: 77 residues for the amino-terminal pro-peptide plus 275 residues for the mature subtilisin; made in house
T1 sequence (P04189 107-381): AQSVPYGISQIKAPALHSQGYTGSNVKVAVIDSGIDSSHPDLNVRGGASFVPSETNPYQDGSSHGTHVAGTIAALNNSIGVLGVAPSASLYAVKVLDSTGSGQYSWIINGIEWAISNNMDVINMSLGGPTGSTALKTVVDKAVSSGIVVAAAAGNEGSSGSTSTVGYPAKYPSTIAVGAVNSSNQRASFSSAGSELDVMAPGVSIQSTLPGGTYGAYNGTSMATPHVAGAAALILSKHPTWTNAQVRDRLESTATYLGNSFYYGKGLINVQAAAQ
Source text: 5. The synthetic pro-peptide is able to specifically bind to the active center of subtilisin.

denatured subtilisin E = biological target: T2, denatured subtilisin E (Bacillus subtilis, UniProt P04189); test: Renaturation (intermolecular refolding) of denatured subtilisin E with exogenously added pro-peptide; type: biochemical
T2 construct: 77 residues for the amino-terminal pro-peptide plus 275 residues for the mature subtilisin; made in house
T2 sequence (P04189 107-381): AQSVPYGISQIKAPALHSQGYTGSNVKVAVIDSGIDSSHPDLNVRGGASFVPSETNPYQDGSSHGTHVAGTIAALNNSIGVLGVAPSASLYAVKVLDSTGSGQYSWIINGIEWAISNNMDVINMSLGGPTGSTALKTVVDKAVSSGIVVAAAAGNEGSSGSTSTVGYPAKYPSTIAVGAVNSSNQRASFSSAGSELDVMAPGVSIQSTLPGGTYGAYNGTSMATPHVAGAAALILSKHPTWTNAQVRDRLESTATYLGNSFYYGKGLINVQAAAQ
Source text: The studies established that denatured subtilisin (without the pro-peptide)cannot be renatured to active subtilisin.
The pro-peptide of 77 residues for subtilisin E (see FIG. 1) was synthesized.
(§1) Other synthetic activating sequences were reacted with a selected polypeptide, in this case subtilisin, as described by Ohta et al. in Molecular Microbiology, 5(6), 1507-1510 (1991), which is incorporated herein by reference (and cofiled herewith). Active subtilisin was obtained.
(§2) The concentration of the activating peptide is preferably in a molar ratio of one of the activating protein to the polypeptide to be activated. At higher and lower concentration than 1 to 1, the renaturation yield was not as high; when the ratio exceeded 1, inhibition was observed. The activating peptide appears to act an inhibitor of the activated polypeptide.
(§3) Different concentrations of the different synthetic peptides were used a shown in the above-cited reference. The mixture of synthetic and polypeptide was dialyzed against 10 mM sodium phosphate, pH 7.0, that also contained 0.5M (NH4)2 SO4, 2 mM CaCl2 and 10 μm of 3,5-bis-trifluoromethylbenzeneboronic acid (BTFBA), a serine protease inhibitor.

pro-subtilisin E = biological target: T3, pro-subtilisin E (Bacillus subtilis, UniProt P04189); test: In vitro processing of denatured pro-subtilisin to active subtilisin by dialysis; type: biochemical; conditions: for Processing/conversion to active mature subtilisin: in vitro dialysis, e.g. 0.2M sodium phosphate pH 6.2
T3 construct: Pro-subtilisin consists of 352 amino acid residues; 77 residues for the amino-terminal pro-peptide plus 275 residues for the mature subtilisin; E. coli OmpA signal peptide (N); made in house; host or cells: E. coli (inclusion bodies)
T3 sequence (P04189 30-381 limits assumed): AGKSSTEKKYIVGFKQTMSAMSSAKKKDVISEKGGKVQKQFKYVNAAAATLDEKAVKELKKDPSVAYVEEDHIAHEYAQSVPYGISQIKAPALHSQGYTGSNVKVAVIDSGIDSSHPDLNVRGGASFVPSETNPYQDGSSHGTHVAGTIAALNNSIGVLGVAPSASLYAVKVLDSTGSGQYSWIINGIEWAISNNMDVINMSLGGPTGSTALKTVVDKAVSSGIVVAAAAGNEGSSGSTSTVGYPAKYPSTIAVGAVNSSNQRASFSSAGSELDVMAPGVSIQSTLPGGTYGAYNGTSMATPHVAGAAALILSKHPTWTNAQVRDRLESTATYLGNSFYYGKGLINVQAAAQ
Source text: Pro-subtilisin thus produced was solubilized in 6M guanidine-HCl and purified to homogeneity in the presence of 5M urea.
Its N-terminal amino acid sequence and the mobility in SDS-polyacrylamide gel electrophoresis were identical to those of authentic subtilisin.
It is interesting to note that the processing reaction to active subtilisin was independent of the pro-subtilisin concentration. Thus, the conversion is a first-order reaction.
The pro-subtilisin was in solution in a denaturant like guanidine-HCl or urea to prevent autoprocesssing to active subtitisin. For best results, the work was carried out with urea.
The method for activating the polypeptide comprises contacting it with the selected activating peptide. For pro-subtilisin E the efficiency of the conversion to active subtilisin E is independent of the pro-subtilisin concentration, indicating a first order reaction. The reaction is carried out in an appropriate buffer medium. […] At higher concentration, the ammonium sulfate appears to inhibit the proper folding of the polypeptide. When sulfate is used as the anion, there may be used as cations Na^+, K^+, and Li^+ or NH4^+ and equivalent others. Most efficient processing was obtained with 0.5M (NH4)2 SO4 in a 10 mM Tri-HCl buffer (at pH7.0), containing 1 mM CaCl2. Under these conditions, 1 mg of pro-subtilisin produced 89 U of subtilisin activity.

[1] = biological target: T4, denatured subtilisin BPN' (Bacillus amyloliquefaciens, UniProt P00782); test: Renaturation of denatured subtilisin BPN' with exogenously added pro-peptide; type: biochemical; conditions: for Efficiency of renaturation of denatured subtilisin BPN' relative to the pro-77-mer: relative to pro-77-mer
T4 sequence (P00782 108-382): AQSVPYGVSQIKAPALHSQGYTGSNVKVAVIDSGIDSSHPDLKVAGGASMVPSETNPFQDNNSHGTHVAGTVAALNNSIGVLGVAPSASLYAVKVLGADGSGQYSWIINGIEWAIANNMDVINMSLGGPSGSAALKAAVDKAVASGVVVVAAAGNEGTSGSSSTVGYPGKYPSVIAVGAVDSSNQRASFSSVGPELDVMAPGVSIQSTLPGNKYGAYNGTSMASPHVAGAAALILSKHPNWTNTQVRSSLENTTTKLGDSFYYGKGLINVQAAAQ
Source text: Similarly, pro-peptides corresponding to -1 to -77, -1 to -68 and -1 to -63 for subtilisin BPN' were synthesized (See FIG. 1).
as §1, §2, §3

subtilisin BPN' = biological target: T5, subtilisin BPN' (Bacillus amyloliquefaciens); test: competitive inhibition of enzyme activity
T5 chain: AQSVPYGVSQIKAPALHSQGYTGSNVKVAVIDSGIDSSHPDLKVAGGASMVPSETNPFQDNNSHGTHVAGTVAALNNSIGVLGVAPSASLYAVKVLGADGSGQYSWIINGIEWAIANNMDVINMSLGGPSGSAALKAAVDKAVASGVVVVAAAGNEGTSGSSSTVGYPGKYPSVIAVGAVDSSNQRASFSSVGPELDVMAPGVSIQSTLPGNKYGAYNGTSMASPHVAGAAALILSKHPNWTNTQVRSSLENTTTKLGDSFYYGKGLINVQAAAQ

[2] = biological target: T6, subtilisin E (Bacillus subtilis); test: competitive inhibition of enzyme activity
T6 chain: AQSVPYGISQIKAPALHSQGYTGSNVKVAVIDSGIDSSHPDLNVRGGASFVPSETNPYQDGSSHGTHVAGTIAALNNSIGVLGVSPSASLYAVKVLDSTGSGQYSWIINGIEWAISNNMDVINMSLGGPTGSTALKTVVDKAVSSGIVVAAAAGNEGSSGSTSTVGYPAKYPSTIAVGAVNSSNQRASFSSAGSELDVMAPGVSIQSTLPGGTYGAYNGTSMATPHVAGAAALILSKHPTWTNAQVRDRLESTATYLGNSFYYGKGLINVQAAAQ

subtilisin Carlsberg = biological target: T7, subtilisin Carlsberg (Bacillus licheniformis, UniProt P00780); test: Renaturation of acid-denatured subtilisin Carlsberg with exogenously added pro-peptide; type: biochemical
T7 construct: denatured subtilisin (without the pro-peptide)cannot be renatured to active subtilisin
Source text: This pro-peptide variant was effective even though there are quite a number of amino acid substitutions in both subtilisins BPN' and Carlsberg when compared with subtilisin E (See FIG. 1).

synthetic pro-peptide of -1 to -77 for subtilisin E: synthesized pro-peptide of 77 residues (-1 to -77) for subtilisin E
Ki (subtilisin E; listed as synthetic pro-peptide): 540 nM
Ki (subtilisin E; read-out: Ki as competitive inhibitor of subtilisin E): ≤ 540 nM
Refolding/renaturation of denatured subtilisin E to active enzyme (denatured subtilisin E): able to intermolecularly complement the refolding

O=S(=O)(F)Cc1ccccc1 [phenylmethanesulfonyl fluoride, reference compound]
Inhibition of the processing of pro-subtilisin to active subtilisin (pro-subtilisin E): unable to inhibit

B1: processed subtilisin: active subtilisin obtained by in vitro processing of pro-subtilisin E (protein, UniProt P04189 107-381, looked up)
Subtilisin E: AQSVPYGISQIKAPALHSQGYTGSNVKVAVIDSGIDSSHPDLNVRGGASFVPSETNPYQDGSSHGTHVAGTIAALNNSIGVLGVAPSASLYAVKVLDSTGSGQYSWIINGIEWAISNNMDVINMSLGGPTGSTALKTVVDKAVSSGIVVAAAAGNEGSSGSTSTVGYPAKYPSTIAVGAVNSSNQRASFSSAGSELDVMAPGVSIQSTLPGGTYGAYNGTSMATPHVAGAAALILSKHPTWTNAQVRDRLESTATYLGNSFYYGKGLINVQAAAQ
Specific activity of processed subtilisin relative to authentic subtilisin E (pro-subtilisin E): approximately half

B2: pro-63-mer (from -1 to -63) for subtilisin BPN' (peptide)
peptide: KQTMSTMSAAKKKDVISEKGGKVQKQFKYVDAASATLNEKAVKELKKDPSVAYVEEDHVAHAY
Efficiency of renaturation of denatured subtilisin BPN' relative to the pro-77-mer [1]: 30-40%
Ki (subtilisin BPN'): 790 nM

B3: Streptomyces subtilisin inhibitor: inhibitor tested on processing of pro-subtilisin to active subtilisin (protein)
chain: DAPSALYAPSALVLTVGKGVSATTAAPERAVTLTCAPGPSGTHPAAGSACADLAAVGGDLNALTRGEDVMCPMVYDPVLLTVDGVWQGKRVSYERVFSNECEMNAHGSSVFAF
Inhibition of the processing of pro-subtilisin to active subtilisin (pro-subtilisin E): unable to inhibit

B4: pro-68-mer (from -1 to -68) for subtilisin BPN' (peptide)
peptide: YIVGFKQTMSTMSAAKKKDVISEKGGKVQKQFKYVDAASATLNEKAVKELKKDPSVAYVEEDHVAHAY
Efficiency of renaturation of denatured subtilisin BPN' relative to the pro-77-mer [1]: 30-40%
Ki (subtilisin BPN'): 760 nM

B5: synthetic pro-peptide of -1 to -77 for subtilisin E (peptide)
peptide: AGKSSTEKKYIVGFKQTMSAMSSAKKKDVISEKGGKVQKQFKYVNAAAATLDEKAVKELKKDPSVAYVEEDHIAHEY
modifications: not checked
Ki [2]: < 540 nM

B6: pro-77-mer (from -1 to -77) for subtilisin BPN' (peptide)
peptide: AGKSNGEKKYIVGFKQTMSTMSAAKKKDVISEKGGKVQKQFKYVDAASATLNEKAVKELKKDPSVAYVEEDHVAHAY
Effectiveness for the renaturation of denatured subtilisin BPN' [1]: most effective
Ki (subtilisin BPN'): 380 nM

B7: pro-subtilisin E: pro-subtilisin produced in E. coli as inclusion bodies, solubilized in 6M guanidine-HCl and purified in 5M urea (protein)
chain: AGKSSTEKKYIVGFKQTMSAMSSAKKKDVISEKGGKVQKQFKYVNAAAATLDEKAVKELKKDPSVAYVEEDHIAHEYAQSVPYGISQIKAPALHSQGYTGSNVKVAVIDSGIDSSHPDLNVRGGASFVPSETNPYQDGSSHGTHVAGTIAALNNSIGVLGVSPSASLYAVKVLDSTGSGQYSWIINGIEWAISNNMDVINMSLGGPTGSTALKTVVDKAVSSGIVVAAAAGNEGSSGSTSTVGYPAKYPSTIAVGAVNSSNQRASFSSAGSELDVMAPGVSIQSTLPGGTYGAYNGTSMATPHVAGAAALILSKHPTWTNAQVRDRLESTATYLGNSFYYGKGLINVQAAAQ
Subtilisin activity produced from 1 mg of pro-subtilisin (pro-subtilisin E; 0.5M (NH4)2SO4 in 10 mM Tris-HCl pH 7.0, 1 mM CaCl2): 89 U
Conversion efficiency of pro-subtilisin to active subtilisin (pro-subtilisin E; calculated from 89 U versus 470 U): approximately 20%
Theoretical maximum activity for 1 mg of pro-subtilisin E (pro-subtilisin E; estimated): 470 U
Processing/conversion to active mature subtilisin (pro-subtilisin E): converted to active subtilisin

B8: pro-subtilisin E with the Asp32 to Asn active site mutation: pro-subtilisin E with active site mutation Asp32 to Asn, used as exogenous pro-peptide source (protein, UniProt P04189 30-381, looked up, variant D32N)
pro-form: AGKSSTEKKYIVGFKQTMSAMSSAKKKDVISEKGGKVQKQFKYVNAAAATLDEKAVKELKKDPSVAYVEEDHIAHEYAQSVPYGISQIKAPALHSQGYTGSNVKVAVINSGIDSSHPDLNVRGGASFVPSETNPYQDGSSHGTHVAGTIAALNNSIGVLGVAPSASLYAVKVLDSTGSGQYSWIINGIEWAISNNMDVINMSLGGPTGSTALKTVVDKAVSSGIVVAAAAGNEGSSGSTSTVGYPAKYPSTIAVGAVNSSNQRASFSSAGSELDVMAPGVSIQSTLPGGTYGAYNGTSMATPHVAGAAALILSKHPTWTNAQVRDRLESTATYLGNSFYYGKGLINVQAAAQ
modifications: pro-form
Renaturation of acid-denatured subtilisin BPN' ([1]; acid-denatured): able to renature
Refolding/renaturation of denatured subtilisin E to active enzyme (denatured subtilisin E): active subtilisin is formed
Processing/conversion to active mature subtilisin (pro-subtilisin E; listed as pro-subtilisin with an active site mutation (Asp32 to Asn)): cannot be autoprocessed
Processing/conversion to active mature subtilisin (pro-subtilisin E; listed as pro-subtilisin with an active-site mutation (aspartic acid at position 32 to asp)): unable to be processed
Renaturation of acid-denatured subtilisin Carlsberg (subtilisin Carlsberg): able to renature
